Test [1] addresses T1, ectodomain of murine αKlotho (A35 to K982 of SEQ ID NO: 231) with a C-terminal FLAG tag (murine, UniProt O35082 35-982).
T1 construct: Purified from culture media of a HEK293 cell line; also called αKlotho ectodomain; not shown: C-terminal FLAG tag
T1 sequence: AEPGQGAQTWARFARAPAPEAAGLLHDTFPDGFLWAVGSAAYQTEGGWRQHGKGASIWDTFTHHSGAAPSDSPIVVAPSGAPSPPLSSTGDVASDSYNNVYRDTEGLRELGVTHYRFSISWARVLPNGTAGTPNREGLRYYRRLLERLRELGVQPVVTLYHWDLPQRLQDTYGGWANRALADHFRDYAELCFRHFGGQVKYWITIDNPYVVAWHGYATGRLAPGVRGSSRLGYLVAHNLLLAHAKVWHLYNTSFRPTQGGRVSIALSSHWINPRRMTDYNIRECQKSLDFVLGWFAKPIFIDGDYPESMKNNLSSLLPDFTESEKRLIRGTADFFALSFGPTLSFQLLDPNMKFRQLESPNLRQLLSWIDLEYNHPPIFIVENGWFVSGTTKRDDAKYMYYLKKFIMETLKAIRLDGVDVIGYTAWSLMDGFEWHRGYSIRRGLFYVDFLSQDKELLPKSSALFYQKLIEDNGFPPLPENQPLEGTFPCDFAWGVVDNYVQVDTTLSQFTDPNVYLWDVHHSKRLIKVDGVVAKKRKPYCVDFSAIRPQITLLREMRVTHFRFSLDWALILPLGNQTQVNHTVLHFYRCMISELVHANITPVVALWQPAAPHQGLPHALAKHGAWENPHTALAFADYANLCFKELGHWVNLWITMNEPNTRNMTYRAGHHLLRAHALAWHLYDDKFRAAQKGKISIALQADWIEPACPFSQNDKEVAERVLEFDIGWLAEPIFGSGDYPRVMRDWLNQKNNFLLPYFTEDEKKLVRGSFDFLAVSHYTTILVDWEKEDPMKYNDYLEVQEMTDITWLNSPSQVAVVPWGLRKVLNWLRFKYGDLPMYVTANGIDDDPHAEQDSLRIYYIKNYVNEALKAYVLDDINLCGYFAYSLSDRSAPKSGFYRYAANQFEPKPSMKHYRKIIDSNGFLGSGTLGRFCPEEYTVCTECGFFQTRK
As to the kind of experiment: SPR; FGF21 immobilized, increasing concentrations of αKlotho ectodomain passed over the chip (FIG. 4E). Here is the method: SPR experiments were performed on a Biacore 2000 instrument (Biacore AB), and all the protein-protein and protein-peptide interactions were studied at 25° C. in HBS-EP buffer (10 mM HEPES-NaOH, pH 7.4, 150 mM NaCl, 3 mM EDTA, 0.005% (v/v) polysorbate 20). Proteins were immobilized by amine coupling on flow channels of research grade CM5 chips (Biacore AB). Proteins were injected over a CM5 chip at a flow rate of 50 μl min⁻¹, and at the end of each protein injection (180 s), HBS-EP buffer (50 μl min⁻¹) was flowed over the chip to monitor dissociation for 180 s. In experiments where βKlotho binding to FGFR was analyzed, the chip surface was then regenerated by injecting 50 μl of 2.0 M NaCl in 10 mM sodium/potassium phosphate, pH 6.5. In experiments where α/βKlotho binding to FGF19/21/23 or binding of the FGFR1c-βKlotho complex to FGF21 was studied, 2.0 M NaCl in 10 mM sodium acetate, pH 4.5 was used for chip regeneration. To control for nonspecific binding in experiments where the ectodomain of αKlotho or βKlotho was immobilized on the chip, β-glucuronidase was coupled to the control flow channel of the chip (˜43-68 fmol/mm²). […] For each protein injection over a chip onto which αKlotho or βKlotho had been immobilized, the nonspecific responses from the β-glucuronidase control flow channel were subtracted from the responses recorded for the α/βKlotho flow channel.
For orientation: Surface plasmon resonance follows binding to a sensor surface in real time, without labels.

Test [2] deals with T2, 1:1 complex of FGFR1c ligand-binding domain and αKlotho ectodomain (human; murine, UniProt P11362 142-365; O35082 35-982).
T2 construct: also called FGFR1c-αKlotho complex; binary FGFR1c-αKlotho complex; not shown: C-terminal FLAG tag
T2 sequence 1: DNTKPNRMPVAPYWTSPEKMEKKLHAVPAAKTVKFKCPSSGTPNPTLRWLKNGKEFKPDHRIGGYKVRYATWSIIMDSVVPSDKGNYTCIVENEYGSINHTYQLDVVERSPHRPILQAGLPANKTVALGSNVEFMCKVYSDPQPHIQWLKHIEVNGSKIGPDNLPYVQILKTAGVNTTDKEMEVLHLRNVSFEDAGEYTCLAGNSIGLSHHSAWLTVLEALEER
T2 sequence 2: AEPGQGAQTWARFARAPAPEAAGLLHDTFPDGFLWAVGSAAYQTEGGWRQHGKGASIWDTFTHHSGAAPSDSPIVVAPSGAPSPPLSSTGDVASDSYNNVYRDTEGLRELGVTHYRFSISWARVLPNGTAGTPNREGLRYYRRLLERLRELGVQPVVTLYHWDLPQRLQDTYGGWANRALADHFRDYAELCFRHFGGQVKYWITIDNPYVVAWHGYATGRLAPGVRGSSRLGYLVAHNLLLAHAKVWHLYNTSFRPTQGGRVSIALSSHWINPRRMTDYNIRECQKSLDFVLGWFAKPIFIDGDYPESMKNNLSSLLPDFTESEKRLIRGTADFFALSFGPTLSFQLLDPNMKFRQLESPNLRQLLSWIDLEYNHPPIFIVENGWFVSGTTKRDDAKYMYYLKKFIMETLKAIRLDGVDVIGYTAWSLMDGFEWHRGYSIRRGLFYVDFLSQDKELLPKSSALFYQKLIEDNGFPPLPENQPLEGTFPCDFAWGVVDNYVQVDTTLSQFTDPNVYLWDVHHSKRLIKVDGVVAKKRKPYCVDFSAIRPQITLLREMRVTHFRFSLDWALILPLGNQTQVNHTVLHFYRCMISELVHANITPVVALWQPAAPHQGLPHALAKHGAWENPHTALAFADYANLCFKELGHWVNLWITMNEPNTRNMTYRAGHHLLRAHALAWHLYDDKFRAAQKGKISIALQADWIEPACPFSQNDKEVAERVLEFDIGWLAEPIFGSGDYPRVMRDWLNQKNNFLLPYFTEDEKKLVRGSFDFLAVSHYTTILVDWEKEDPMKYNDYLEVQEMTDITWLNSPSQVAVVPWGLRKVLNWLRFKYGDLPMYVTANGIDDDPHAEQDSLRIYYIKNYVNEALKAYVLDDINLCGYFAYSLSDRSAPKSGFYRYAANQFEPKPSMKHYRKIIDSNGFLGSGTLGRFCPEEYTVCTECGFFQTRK
As to the kind of experiment: SPR; FGF21 immobilized, 1:1 FGFR1c-αKlotho complex passed over the chip (FIG. 1D).

B1: human FGF21, secreted bioactive form (H29 to S209 of SEQ ID NO: 100) (ligand)
chain: HPIPDSSPLLQFGGQVRQRYLYTDDAQQTEAHLEIREDGTVGGAADQSPESLLQLKALKPGVIQILGVKTSRFLCQRPDGALYGSLHFDPEACSFRELLLEDGYNVYQSEAHGLPLHLPGNKSPHRDPAPRGPARFLPLPGLPPALPEPPGILAPQPPDVGSSDPLSMVGPSQGRSPSYAS
notes: Used both immobilized on the SPR chip and in solution; also called wild-type FGF21; native FGF21
With B1, the binding result in test [1] and in test [2] was “no binding” each time.

Source of the values: patent US20130231277A1 (NEW YORK UNIVERSITY, published 2013).
